From US11466286B2, “Methods and compositions for conferring and/or enhancing herbicide tolerance using protoporphyrinogen oxidase or variant thereof” (FarmHannong Co., Ltd., priority 2016, dated 2022)

Tested on: CyPPO13
Test: PPO enzyme activity and IC50 by herbicides, CyPPO13 wild type and variants (MBP-PPO fusion)
Format: biochemical, Synechococcus sp. JA-3-3Ab
Details: PPO enzyme activity of CyPPO13 protein, wild type = 100
Protocol: The enzyme activities of PPO protein and PPO protein variants were examined, and inhibition assay by PPO-inhibiting herbicides was conducted. It was confirmed that the PPO protein has low water-solubility, but in case of being expressed as a fusion protein with MBP (maltose binding protein) (MBP-PPO), the PPO protein is able to be stably expressed as water-soluble form. Therefore, the wild type and variant proteins which were expressed in the form of fusion protein with MBP were used in the present test (refer to FIG. 4).
In order to express wild type genes and mutant genes of CyPPO10 and CyPPO13 (refer to Example 1 and Example 4), those genes were introduced to pMAL-c2X vector (refer to FIG. 5) respectively, and then cloned to BL21 (DE3) E. coli (CodonPlus).
The enzyme activity of the purified wild type protein and variant proteins of CyPPO10 and CyPPO13 was measured by the following process.
At first, a substrate of PPO protein, Protoporphyrinogen IX was synthesized. This process was performed in the space where nitrogen gas is streamed. 6 mg of protoporphyrin IX was dissolved in 20% (v/v) EtOH 20 ml, and stirred under dark condition for 30 minutes. The obtained protoporphyrinogen IX solution was put into a 15 ml screw tube in an amount of 800 and flushed with nitrogen gas for 5 minutes. To this, 1 g of sodium amalgam was added and vigorous shaking was performed for 2 minutes. The lid was open to exhaust hydrogen gas in the tube. Thereafter, the lid was closed and incubated for 3 minutes. The […] was filtered using syringe and cellulose membrane filter. To 600 μl of the obtained […], 2M MOPS [3-(N-morpholino)propanesulfonic acid] was added in an amount of approximately 300 thereby adjusting pH to 8.0. To determine the enzyme activity of PPO protein, a reaction mixture was prepared with the following composition (based on 10 ml): 50 mM Tris-Cl (pH 8.0); 50 mM NaCl; 0.04% (v/v) Tween 20; 40 mM glucose (0.072 g); 5 units glucose oxidase (16.6 mg); and 10 units catalase (1 μl).
Two hundred microliters (200 μl) of reaction mixture containing a purified PPO protein were placed in 96 well plates, and preincubated for 30 min at room temperature to reduce the oxygen concentration by the reaction of glucose oxidase-catalase. The mineral oil was layered and then the reaction was initiated by adding the substrate, […], to a final concentration of 50 μM. The reaction proceeded at room temperature for 30 min and the fluorescence of protoporphyrin IX was measured using Microplate reader (Sense, Hidex) (excitation: 405 nm; emission: 633 nm). To calculate the PPO enzyme activity, protoporphyrinogen IX solution was kept open in the air to oxidize the solution (overnight). To this, 2.7N HCl was added, and the absorbance at 408 nm was measured. A standard curve was generated using standard protoporphyrin IX, and the PPO activity was measured by calibration of protoporphyrin IX using the standard curve of protoporphyrin IX.
The final concentration of each herbicide was as follows: […]

| Molecule | Activity (%) |
| --- | --- |
| CyPPO13 F373L: CyPPO13 (SEQ ID NO: 4) PPO variant (protein, Synthetic CyPPO13) MNPATPEPLNAEVVVIGAGISGLTLAWRLQQGLSARGGSPQAVLLAEASSRVGGCISTQSKDGYRWEEGPNSFTPTPALLNLIAEVGLTDQLVLADAKLPRYIYWEGALLPVPLSPAAALGSRLLSVGGKLRALQGLLGFVPPPPGHEETVRQFFRRQLGSEVAERLVEPFTSGVYAGDPDQLSAVAAFPRVAGLEERYGSLFAGALQALRQRPQPSPAAIQPPPKRGQLGNLRQGLQQLPEALAQKLGDSLRLGWRALQLKRAGELYWVGFETPEGSRWVAARQVVLALPAYEAAALLQELNPPASQLLAEILYPPVAVVALAYPQEALPQPLRGFGHLIPRSQGLRTLGTIWASCLFPERAPQGYHSFLSLLGGATDAALARRRGIPPIPALSPEERAQIAHAELSQVLLTRRAEPVYLGERLWPRAIPQYTLGHRQRIAQVQAHLASQTPGIWVCANYLDGVALGDCVRRAEALAQQLLSQV | 82 |
| CyPPO13 F373T: CyPPO13 (SEQ ID NO: 4) PPO variant (protein, Synthetic CyPPO13) MNPATPEPLNAEVVVIGAGISGLTLAWRLQQGLSARGGSPQAVLLAEASSRVGGCISTQSKDGYRWEEGPNSFTPTPALLNLIAEVGLTDQLVLADAKLPRYIYWEGALLPVPLSPAAALGSRLLSVGGKLRALQGLLGFVPPPPGHEETVRQFFRRQLGSEVAERLVEPFTSGVYAGDPDQLSAVAAFPRVAGLEERYGSLFAGALQALRQRPQPSPAAIQPPPKRGQLGNLRQGLQQLPEALAQKLGDSLRLGWRALQLKRAGELYWVGFETPEGSRWVAARQVVLALPAYEAAALLQELNPPASQLLAEILYPPVAVVALAYPQEALPQPLRGFGHLIPRSQGLRTLGTIWASCLFPERAPQGYHSFLSTLGGATDAALARRRGIPPIPALSPEERAQIAHAELSQVLLTRRAEPVYLGERLWPRAIPQYTLGHRQRIAQVQAHLASQTPGIWVCANYLDGVALGDCVRRAEALAQQLLSQV | 81 |
| CyPPO13 F373V: CyPPO13 (SEQ ID NO: 4) PPO variant (protein, Synthetic CyPPO13) MNPATPEPLNAEVVVIGAGISGLTLAWRLQQGLSARGGSPQAVLLAEASSRVGGCISTQSKDGYRWEEGPNSFTPTPALLNLIAEVGLTDQLVLADAKLPRYIYWEGALLPVPLSPAAALGSRLLSVGGKLRALQGLLGFVPPPPGHEETVRQFFRRQLGSEVAERLVEPFTSGVYAGDPDQLSAVAAFPRVAGLEERYGSLFAGALQALRQRPQPSPAAIQPPPKRGQLGNLRQGLQQLPEALAQKLGDSLRLGWRALQLKRAGELYWVGFETPEGSRWVAARQVVLALPAYEAAALLQELNPPASQLLAEILYPPVAVVALAYPQEALPQPLRGFGHLIPRSQGLRTLGTIWASCLFPERAPQGYHSFLSVLGGATDAALARRRGIPPIPALSPEERAQIAHAELSQVLLTRRAEPVYLGERLWPRAIPQYTLGHRQRIAQVQAHLASQTPGIWVCANYLDGVALGDCVRRAEALAQQLLSQV | 83 |
| CyPPO13 F373H: CyPPO13 (SEQ ID NO: 4) PPO variant (protein, Synthetic CyPPO13) MNPATPEPLNAEVVVIGAGISGLTLAWRLQQGLSARGGSPQAVLLAEASSRVGGCISTQSKDGYRWEEGPNSFTPTPALLNLIAEVGLTDQLVLADAKLPRYIYWEGALLPVPLSPAAALGSRLLSVGGKLRALQGLLGFVPPPPGHEETVRQFFRRQLGSEVAERLVEPFTSGVYAGDPDQLSAVAAFPRVAGLEERYGSLFAGALQALRQRPQPSPAAIQPPPKRGQLGNLRQGLQQLPEALAQKLGDSLRLGWRALQLKRAGELYWVGFETPEGSRWVAARQVVLALPAYEAAALLQELNPPASQLLAEILYPPVAVVALAYPQEALPQPLRGFGHLIPRSQGLRTLGTIWASCLFPERAPQGYHSFLSHLGGATDAALARRRGIPPIPALSPEERAQIAHAELSQVLLTRRAEPVYLGERLWPRAIPQYTLGHRQRIAQVQAHLASQTPGIWVCANYLDGVALGDCVRRAEALAQQLLSQV | 26 |
